# Reference: patent US20190135911A1, “TREATING RESPIRATORY DISEASES BY TARGETING INTERLEUKIN 4 INDUCED 1 (IL4I1)” (Five Prime Therapeutics, Inc., priority 2016, published 2019)
# Entries after “also recorded” stand apart in the source; their conditions may differ.
# B1: IL4I1: Human IL4I1 protein (R&D Systems #5684-AO) added to the co-culture media (protein, UniProt Q96RQ9 22-567, looked up)
# L-amino-acid oxidase: QDWKAERSQDPFEKCMQDPDYEQLLKVVTWGLNRTLKPQRVIVVGAGVAGLVAAKVLSDAGHKVTILEADNRIGGRIFTYRDQNTGWIGELGAMRMPSSHRILHKLCQGLGLNLTKFTQYDKNTWTEVHEVKLRNYVVEKVPEKLGYALRPQEKGHSPEDIYQMALNQALKDLKALGCRKAMKKFERHTLLEYLLGEGNLSRPAVQLLGDVMSEDGFFYLSFAEALRAHSCLSDRLQYSRIVGGWDLLPRALLSSLSGLVLLNAPVVAMTQGPHDVHVQIETSPPARNLKVLKADVVLLTASGPAVKRITFSPPLPRHMQEALRRLHYVPATKVFLSFRRPFWREEHIEGGHSNTDRPSRMIFYPPPREGALLLASYTWSDAAAAFAGLSREEALRLALDDVAALHGPVVRQLWDGTGVVKRWAEDQHSQGGFVVQPPALWQTEKDDWTVPYGRIYFAGEHTAYPHGWVETAVKSALRAAIKINSRKGPASDTASPEGHASDMEGQGHVHGVASSPSHDLAKEEGSHPPVQGQLSLQNTTHTRTSH
# Test system: moDCs in co-culture with bronchial epithelial cells from COPD patients
# Assay: moDC / COPD bronchial epithelial cell co-culture treated with IL4I1, DC mRNA levels (Quantigene multiplex panel)
# Assay type: cell-based, human
# Settings: IL4I1 serially diluted into basolateral media; 24 hr BEC pre-incubation, 24 hr co-culture with DCs (COPD donor #AB63); normalized to GAPDH; FIG. 2
# Description: To differentiate airway epithelium in vitro, healthy smoker derived bronchial epithelial cells (Lonza lot #7F3833, 489, 237440, 899; Epithelix lot #13086) and COPD patient derived bronchial epithelial cells (Lonza lot #3313, 498, 3207, 3379; Epithelix lot #AB63, 472) were expanded according to the Lonza protocol with the following modification: the cells were subjected to two passages in Lonza BEBM media with supplements as reported in Widdicombe et al. (BioTechniques 39:249-255, August 2005). Cells were seeded onto collagen coated 0.4 um 96 transwell plates at 15,000 cells per 75 μl of the above media, and 235 μl of the same media was added to the basolateral receiver plate. After 3 days (with a single apical media change of the same volume), the apical media was completely removed in an airlift. To induce differentiation the cells were then cultured for 18 days with PneumaCult-ALI Medium (StemCell Technologies, #05001).
# DC were generated as follows. […] After 48 hrs of cell culture, DC were lysed and mRNA levels were measured by microarray. […]
# Co-cultures were initiated as described above. […] After 24 hr coculture the DCs were lysed and mRNA levels were measured with an Affymetrix Quantigene multiplex panel on a FlexMap 3D instrument. For each gene the relative luminescence was normalized to a housekeeper gene GAPDH.
molecule,measurement,value
B1,"mRNA expression of dendritic cell genes (CXCL5, PTGES, S100A8, SERPINB2, THBS1)",enhanced mRNA expression; also recorded: further enhances the expression
